Here are results for two substances from patent US20040146968A1.

Assay [1] addresses sDR5 protein (extracellular domain of TRAIL receptor DR5, residues 1-130) (human). Briefly: SPR, BIAcore 2000, sDR5 immobilised.
Assay [2] shares this target. Briefly: SPR, BIAcore 2000, sDR5 amine-coupled to chip, TRAIL 300-900 nM as analyte, 1:1 model, 25° C., apparent KD. (In SPR one partner is held on a chip, and binding of the other changes the refractive index at the surface.)
Assay [3] shares this target. Put plainly: cell-based or functional assay.

As to “TRAIL deletion mutant protein containing the deletion of residues 132-135 in the AA″ loop (ligand)”, the fold change of apparent KD against wild-type TRAIL in assay [1] was 18 fold. In addition, the Kd in assay [2] is 294 nM. Besides, the cytotoxic activity on human SK-HEP-1 hepatoma cells (MTT viability, concentration giving 50% cell death) in assay [3] was > 1000 ng/mL.
“wild-type TRAIL protein (human, residues 114-281) (ligand)”: in assay [2], the Kd was determined as 15.9 nM. Further, the cytotoxic activity on human SK-HEP-1 hepatoma cells (MTT viability, concentration giving 50% reduction of viability) in assay [3] worked out at 50 ng/mL.
